The target of test [1] is T1, murine MERTK extracellular domain conjugated to an IgG Fc domain (murine, UniProt Q60805 19-497).
T1 construct: extracellular domain; also called mMER; not shown: IgG Fc domain
T1 sequence (looked up): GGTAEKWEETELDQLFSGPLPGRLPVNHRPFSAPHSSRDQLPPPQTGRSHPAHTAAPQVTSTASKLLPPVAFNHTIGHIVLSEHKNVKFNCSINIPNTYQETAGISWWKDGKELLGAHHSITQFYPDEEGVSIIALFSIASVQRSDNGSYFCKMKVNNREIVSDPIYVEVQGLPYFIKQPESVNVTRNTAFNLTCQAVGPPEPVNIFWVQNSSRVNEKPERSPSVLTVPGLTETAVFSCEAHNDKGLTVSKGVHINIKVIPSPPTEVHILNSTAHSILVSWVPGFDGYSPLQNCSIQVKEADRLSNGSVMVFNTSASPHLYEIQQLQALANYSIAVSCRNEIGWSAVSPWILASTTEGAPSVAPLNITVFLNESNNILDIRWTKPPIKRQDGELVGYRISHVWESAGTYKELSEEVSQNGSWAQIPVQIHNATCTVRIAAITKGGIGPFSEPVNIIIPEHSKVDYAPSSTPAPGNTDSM
Kind of test: competition ELISA: soluble mMer-Fc (varied) equilibrated with z10, free z10 caught on plate-coated hMER. The protocol: (§1) Plates were washed three times with PBS 0.1% Tween and blocked with 3% non-fat dry skim milk in PBS for 2 h.
(§2) During the saturation step, dilutions of the antigen hAxl (RnD Systems, 154-AL-100), hTyro3 (RnD Systems, 859-DK-100) or mMER (RnD Systems, 591-MR-100)] were prepared at 50 nM as the highest concentration, and serially diluted 1:1 to 0.098 nM in PBS. […] Then, the saturated plate was washed three times with PBS 0.1% Tween and the antigen-antibody mixture was added to the wells in duplicate and incubated for 1 h at room temperature. The plate was then washed three times with PBS 0.1% Tween and incubated with anti-human Alkaline Phosphatase antibody (Sigma, SAB 3701248) at a dilution of 1:3000 in PBS for 1 h at room temperature. After washing three times with PBS 0.1% Tween, 100 uL of Alkaline Phosphatase Yellow (pNPP) liquid substrate system (Sigma, P7998) was added in each well and incubated for 70 min at room temperature. Plates were read at 405 nm and at 570 nm, to correct plate inconsistencies, using Glomax Discover System from Promega The absorbance was plotted as a function of antigen concentration and the Kd was calculated using GraphPad Prism 7.0c.
A general note: An ELISA detects its analyte on a solid surface through an enzyme-linked reagent.

The target in test [2] is T2, rhMer/Fc Chimera (recombinant human MERTK extracellular domain conjugated to an IgG Fc domain) (human, UniProt Q12866 21-505).
T2 construct: extracellular domain; also called hMER recombinant protein; Mer-Fc conjugate; not shown: IgG Fc domain
T2 sequence (looked up): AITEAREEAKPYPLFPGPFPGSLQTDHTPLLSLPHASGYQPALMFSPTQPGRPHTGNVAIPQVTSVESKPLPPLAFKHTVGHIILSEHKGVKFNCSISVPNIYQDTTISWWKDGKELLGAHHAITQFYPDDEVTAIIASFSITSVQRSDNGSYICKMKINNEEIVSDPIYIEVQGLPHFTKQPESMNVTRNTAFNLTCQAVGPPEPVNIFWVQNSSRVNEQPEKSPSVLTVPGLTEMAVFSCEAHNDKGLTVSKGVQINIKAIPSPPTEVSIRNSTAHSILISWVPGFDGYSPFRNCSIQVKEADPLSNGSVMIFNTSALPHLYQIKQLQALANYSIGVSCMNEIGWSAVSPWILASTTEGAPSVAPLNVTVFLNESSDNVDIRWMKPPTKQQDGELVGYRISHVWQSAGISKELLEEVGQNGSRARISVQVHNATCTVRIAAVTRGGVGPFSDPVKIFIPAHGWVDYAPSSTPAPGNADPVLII
Kind of test: SPR, avidity format: rhMer/Fc Chimera immobilised on CM5 chip, antibody as analyte, 1:1 fit. The method, then: With respect to avidity and affinity measurements using SPR, the protocols below were used.
The activator was prepared with a mixture of 400 mM EDC and 100 mM NHS immediately prior to injection. The CM5 sensor chip was activated for 420 s with the mixture. […] The chip was deactivated by 1 M ethanolamine-HCl. […] 8 concentrations (0.3125, 0.625, 1.25, 2.5, 5, 10, 20 and 40 nM) of the antibodies and running buffer were injected at a flow rate of 30 μL/min for an association phase of 240 s, followed by 4800 s dissociation. 10 mM glycine pH 1.5 as regeneration buffer was injected following every dissociation phase. The chip was regenerated with 10 mM glycine pH 1.5. One surface channel without capturing ligand was used as control surface for reference subtraction. Final data of each interaction was deducted from reference channel and buffer channel data. […] A molecular weight of 150 kDa was used to calculate the molar concentration of the antibodies.
In general terms: In SPR one partner is held on a chip, and binding of the other changes the refractive index at the surface.

For test [3], the target named is T3, extracellular MERTK domain (W3725-hPro1, Sino Biological, 10298-HCCH) (human, UniProt Q12866 21-505).
T3 construct: extracellular domain; also called human extracellular MERTK
T3 sequence (looked up): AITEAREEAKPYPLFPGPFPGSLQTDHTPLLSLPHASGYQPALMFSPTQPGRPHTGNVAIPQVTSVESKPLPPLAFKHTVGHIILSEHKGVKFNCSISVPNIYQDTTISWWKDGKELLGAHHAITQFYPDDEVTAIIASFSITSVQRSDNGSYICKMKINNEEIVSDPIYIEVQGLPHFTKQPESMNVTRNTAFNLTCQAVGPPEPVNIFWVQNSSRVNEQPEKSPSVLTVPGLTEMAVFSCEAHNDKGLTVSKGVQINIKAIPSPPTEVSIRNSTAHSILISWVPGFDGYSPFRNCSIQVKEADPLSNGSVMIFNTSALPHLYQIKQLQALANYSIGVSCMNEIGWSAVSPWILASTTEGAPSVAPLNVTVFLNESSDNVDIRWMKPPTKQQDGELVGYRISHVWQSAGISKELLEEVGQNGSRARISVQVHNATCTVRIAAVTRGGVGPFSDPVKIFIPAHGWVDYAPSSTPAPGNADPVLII
Kind of test: SPR, affinity format: z10 captured by anti-human Fc on CM5 chip, extracellular MERTK domain as analyte, 1:1 fit; Affinity, SPR. The method, then: A CM5 sensor chip was activated for 420 s with a mixture of 400 mM EDC and 100 mM NHS. […] The chip was deactivated by 1 M ethanolamine-HCl. […] 10 mM glycine pH 1.5 as regeneration buffer was injected following every dissociation phase. The chip was regenerated with 10 mM glycine pH 1.5. One surface channel (without captured ligand) was used as control surface for reference subtraction. Final data of each interaction was deducted from reference channel and buffer channel data. […] A molecular weight of 54 kDa was used to calculate the molar concentration of the analyte.

In test [4] the target is T4, human Tyro3 extracellular domain (human, UniProt Q06418 41-429).
T4 construct: extracellular domain; also called hTyro3
T4 sequence (looked up): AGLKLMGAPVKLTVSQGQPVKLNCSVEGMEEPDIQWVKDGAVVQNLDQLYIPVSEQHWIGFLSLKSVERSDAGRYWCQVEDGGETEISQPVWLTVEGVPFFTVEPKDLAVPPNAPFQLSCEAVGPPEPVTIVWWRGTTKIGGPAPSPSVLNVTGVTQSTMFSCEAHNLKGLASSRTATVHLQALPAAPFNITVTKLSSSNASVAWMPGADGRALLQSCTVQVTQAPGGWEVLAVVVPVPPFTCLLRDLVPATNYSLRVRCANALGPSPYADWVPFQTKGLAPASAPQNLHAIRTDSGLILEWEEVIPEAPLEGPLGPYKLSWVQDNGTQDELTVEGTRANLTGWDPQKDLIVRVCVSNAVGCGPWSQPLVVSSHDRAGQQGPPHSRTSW
Kind of test: competition ELISA: soluble hTyro3-Fc (varied) equilibrated with z10, free z10 caught on plate-coated hMER. The protocol:
as §1, §2

B1: z10 antibody (antibody, human IgG1, kappa, V domains shown)
VH: QVQLVQSGAEVKKPGASVKVSCKASGYTFTNYGMNWVRQAPGQGLEWMGWINTYTGEPTYADDFKGRVTFTTDTSTSTAYMELRSLRSDDMAVYYCARKSTVVSRYFDVWGQGTTVTVSS
VL: DIQMTQSPSFLSASVGDRVTITCKASQDVGDAVTWYQQKPGKAPKLLIYWASTRHTGVPDRFSGSGSGTDFTLTISSLQPEDFATYYCQQYRSYPLTFGQGTKLEIKR
notes: also called MERTK (z10) antibody
With B1, the binding result in test [1] and in test [4] was “no binding (tested: 50 nM)” throughout. Besides, the Kd in test [2] came out at 0.00574 nM; in test [3] it was 3 nM.

The values above are taken from patent publication US20200291135A1 (INSPIRNA, published 2020).
